# ± gives the uncertainty stated by the source.
# Assay: protein stability index of a GFP-peptide fusion (yeast GPS) (PSI 1-4); higher = more stable; sorted into four equal gates, so the index is relative within each strain
# Details: doa10∆
# Procedure, shortened: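 Mid-log yeast cultures in leucine-free medium, carrying a pooled plasmid library, were sorted into four equal gates by their GFP/Cherry fluorescence ratio. Each plasmid expressed Cherry along with GFP fused upstream of a tiled 17-residue yeast protein peptide. Plasmids recovered from each gate were PCR-amplified and Illumina-sequenced, with reads assigned to strains by barcodes. The protein stability index was obtained by summing each gate's read frequency weighted by its gate number.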
row,Sequence,protein stability index
1,KDLVIVSNLMGRNIGHP [RPB3],3.22 ± 0.051
2,KDMSPILGELKRVKSYM [LRP1],2.43 ± 0.062
3,KDPSPEILVLYNVCDTS [SIN4],2.8 ± 0.071
4,KDQDSQIELSCNERVPL [SRP72],3.08 ± 0.08
5,KDSLDNTFVTRLNNVFV [RPS4A],3.02 ± 0.11
6,KDSLWQSEHLEAVVDQD [FAS1],3.43 ± 0.24
7,KDWELEARFWHLVELLL [YDL116W/NUP84],2.26 ± 0.1
8,KEDAKATMENIQKGKFT [SRP54],3.07 ± 0.055
9,KEEFSSDESIERLMTWK [RRI2],2.49 ± 0.08
10,KEEGLQQFNLHEILSEP [MED1],2.97 ± 0.15
11,KEEQPKQIIVTRKAMLD [PRP8],2.62 ± 0.078
12,KEHDEIEEQGDALQDVE [DPB4],3.17 ± 0.092
13,KEIMDKIITSRPLQKIM [SIN4],2.13 ± 0.12
14,KEKESKKDSKPAFSFGI [YLR335W/NUP2],2.96 ± 0.077
15,KEKIQHELGINIDSLKF [BRR2],3.19 ± 0.065
16,KEKVEEQEQQQQQIIKI [RPS20],3.16 ± 0.076
17,KEKVSNGGVGVDVELIT [FAS2],2.96 ± 0.046
18,KEKYGLAVSTILGKNFD [SMC1],2.98 ± 0.07
19,KELFEKTFDYVSDHLDA [SMC1],3.35 ± 0.085
20,KELNTERQIFLEACIVR [CDC53],2.09 ± 0.048
21,KELQLEKESVEKQHENA [SMC3],3.02 ± 0.14
22,KENDTVMNTKLLQEGGS [ESC2],3.16 ± 0.12
23,KEPKKLLPNSKNVENTK [DSN1],3.12 ± 0.17
24,KEPPRDRKKDKNVKHSG [RPL12A],3.29 ± 0.09
25,KEPVDDKDVKAKYETSI [FAS2],3.2 ± 0.086
26,KEQYNRYRDLMISCLMN [MTR3],2.07 ± 0.085

row,Sequence,protein stability index
1,KERNQKFQLQNQLEDFI [YIL149C/MLP2],3.05 ± 0.075
2,KESDESKSAFSFGSKPT [YJL041W/NSP1],3.1 ± 0.048
3,KESQLPRIQRADPVALY [RPB5],2.32 ± 0.069
4,KFELGRQPANTKIGAKR [RPS8A],2.87 ± 0.06
5,KFFIMIVKGNIIDEIKC [POP4],1.32 ± 0.055
6,KFLILNENPINKIMTNQ [NUT1],2.9 ± 0.11
7,KFQKLLQNSERDVELSS [SMC4],2.82 ± 0.065
8,KFSDIIQGISKMYSDDT [BRN1],2.93 ± 0.062
9,KGLLIWRLLFIDKFIMV [GRR1],1.43 ± 0.062
10,KGLQIYQSSVQEPFLNS [PRP8],2.89 ± 0.05
11,KGLTYLHLDYNFNLKPT [PRP8],2.19 ± 0.032
12,KGRFAVHRITDEEASYK [RPS4A],3.13 ± 0.075
13,KGSRKSSKAATPDTKNF [SNF12],3 ± 0.063
14,KGSVAAKTFLEKRWNDE [PRE8],2.38 ± 0.18
15,KGTGEESNDRINKIVEI [YGR119C/NUP57],3.66 ± 0.18
16,KGTNGKKALKVRTSATF [RPL25],3.15 ± 0.13
17,KGTVFQFEIPISDDDDS [POP4],3.3 ± 0.17
18,KHEDLSLEQRQEVTKFA [RPN4],2.85 ± 0.15
19,KHIKNLEDDSLLSYPIK [RPN12],2.9 ± 0.047
20,KICRGRMNTIITHPGKM [SIR4],3.36 ± 0.28
21,KICSSEMINEQKLPQYI [RGR1],3.02 ± 0.11
22,KIELIKNNLLIPDLSIQ [RPN12],2.75 ± 0.055
23,KIENSVQIGAEIILDFL [CSI1],2.73 ± 0.24
24,KIHSILPVMESLDSCTA [YJR042W/NUP85],2.24 ± 0.09
25,KIIALQPNEISFKYLSN [RGR1],2.43 ± 0.12
26,KIKLLTQATSEDGTSAS [RPC19],2.61 ± 0.065

row,Sequence,protein stability index
1,KIPSASIWGNGYSGYGN [SNF5],3.25 ± 0.1
2,KIQASDVNIIGKDRIAI [RPO31],2.82 ± 0.11
3,KIQQQQPGYADLEHKED [QCR6],2.51 ± 0.062
4,KIRMLTQAAEFLSPYIS [IRR1],1.84 ± 0.04
5,KITTSTEDQKVTTNINW [SRP68],3.13 ± 0.078
6,KIVVLSRTGPVFDLCWN [RRP43],2.07 ± 0.057
7,KIYDAFPQTAMLRRHAA [DIS3],2.41 ± 0.086
8,KKASDLVDTPSNNTAAT [NUT1],3.28 ± 0.1
9,KKCLKLAYENKITDKED [POP4],2.698 ± 0.022
10,KKIRFLQLIIFLRTQFL [RGR1],1.53 ± 0.057
11,KKIRNVPVRDGVTIEFS [RPL9A],2.59 ± 0.11
12,KKLATRPKCGDCGSALQ [RPL34A],2.52 ± 0.12
13,KKLELPKYIDELKTRDA [SWP82],3.03 ± 0.097
14,KKLFQKKENLTRDETVS [YML103C/NUP188],2.65 ± 0.23
15,KKLKAVRIIKHTLDIIN [RPS5],2 ± 0.066
16,KKMGVPYAIVKGKARLG [RPL8A],1.87 ± 0.17
17,KKNDEVSKPAFSFGAKA [YJL041W/NSP1],3.12 ± 0.14
18,KKQQAALTNELNELKAI [YIL149C/MLP2],1.42 ± 0.052
19,KKRMNSNQERCHDEGND [RRI1],3.24 ± 0.064
20,KKRSQAKMNAKTDFAKI [RPC82],3.42 ± 0.094
21,KKTATEPKQKANAVQNN [SRP21],3.06 ± 0.086
22,KKTCSSCGYPAAKTRSY [RPL37A],2.25 ± 0.27
23,KKTCSSCGYPSAKTRSH [RPL37B],2.74 ± 0.066
24,KKVKLAVLSYYKVDAEG [RPS31],1.62 ± 0.084
25,KLALAENDTNMNETLNL [SMC4],3.15 ± 0.13
26,KLDSKKTVPFQVNQLQR [SSN3],3.15 ± 0.063

row,Sequence,protein stability index
1,KLFNKWSFEEVEVKDAS [RPS5],2.17 ± 0.087
2,KLHMGTDDVRLAPELNQ [RPL31A],3.11 ± 0.12
3,KLIPKLYRYRFDPFQAV [ECM29],2.86 ± 0.14
4,KLKEYLDLVARTATLSN [YDL116W/NUP84],2.63 ± 0.23
5,KLKFFPSGEALISSSQD [RPN14],2.92 ± 0.23
6,KLLASTEENKANTNSVT [YIL149C/MLP2],3.32 ± 0.083
7,KLLLLNTSAIQETASPL [YIL149C/MLP2],2.33 ± 0.13
8,KLRKIAISKKNKSLKYV [LIN1],1.65 ± 0.062
9,KLTGDDQKFGVPVRSFK [ASC1],2.36 ± 0.16
10,KLTRELEKKFPDRHVIF [RPS7B],2.75 ± 0.058
11,KLVTNVVDPKTSIEKSS [YML103C/NUP188],2.31 ± 0.056
12,KLWRKIARLYSCISISD [RRI2],2.87 ± 0.11
13,KLYVDAVHSIIALSRRF [YDL116W/NUP84],2.01 ± 0.077
14,KLYVSHIQVNQAPKQRR [RPL17A],1.89 ± 0.079
15,KMMSFQANPTEESISKF [RPB5],3.02 ± 0.077
16,KNAANTEGHKGHEELKR [ISW2],3.43 ± 0.086
17,KNHFRKHWQERVKVHFD [RPL13A],1.3 ± 0.037
18,KNIKIIMATNRLDILDP [RPT6],2.91 ± 0.14
19,KNKSGKIFVETKFSKLI [FAS1],2.33 ± 0.072
20,KNKYGEINSEDYDNKTK [SRP68],3.23 ± 0.094
21,KNLKHIDVTFTKVNNQL [RPL9A],2.79 ± 0.057
22,KNREVVQVSKAGGLPMD [RRP45],3.04 ± 0.11
23,KNVENTKNLSILTSKVN [DSN1],2.37 ± 0.061
24,KNYSRPSTAIHTSPHQP [SIR4],2.86 ± 0.045
